As usually defined, the Kd is a measure of binding affinity in units of concentration. Low readings indicate a tighter complex, high ones a looser complex.

Consider three substances from US20050074840A1.

The target in the assay is human TNF-alpha (hTNF-alpha) (human) (UniProt P01375). As to the kind of experiment: saturation binding of [125I]TNF-alpha on yeast.

As for “mutant clone 6 TNFrED-agglutinin fusion (H34P + S57I) displayed on yeast (from UniProt P20840 330-650)”, the Kd came to 1.71 nM.

For “mutant clone 11 TNFrED-agglutinin fusion (S87P) displayed on yeast (from UniProt P20840 330-650)”, the Kd was found to be 1.31 nM. “wild-type TNFrED-agglutinin fusion displayed on the surface of S. cerevisiae BJ2168 (from UniProt P20840 330-650)” yielded a Kd of 2.04 nM.
